Assay results from patent US7338938B2, “Methods for treating a patient undergoing chemotherapy” (University of Southern California, priority 1999, dated 2008).
Where two headings read alike, the source gives them in different places.

Key:
[1] = system: mice injected with 150 mg/kg 5FU intravenously (WBC, platelets, hemoglobin); experiment: Effect of angiotensin fragments and ACE inhibitor on recovery after chemotherapy (Example 4); format: in vivo; details: after i.v. 5FU
Protocol: The next study was designed to test the effect of angiotensin peptides and the angiotensin converting enzyme inhibitor, enalapril, on recovery of white blood cells, platelets and hemoglobin after chemotherapy, as well as on granulocyte-macrophage colony forming units (GM-CFU) in the blood and bone marrow.
Female […] mice (4 per group), 6-8 weeks old, were injected with 150 mg/kg 5FU intravenously. Administration of the peptides (AII (100 μg/kg/day), AII(1-7) (10 or 100 μg/kg/day), AII(1-5) (10 or 100 μg/kg/day), and AII(1-6) (100 μg/kg/day)), by subcutaneous injection, or enalapril (30 mg/kg/day) by oral gavage, was begun 2 days after administration of the antineoplastic and continued daily until 28 days after 5FU administration, at which time the mice were euthanized for evaluation of white blood cell numbers, platelets, hemoglobin levels and the number of GM-CFU in the bone marrow and peripheral blood. On days 7, 10, 14 and 21 after 5FU administration, blood was taken under anesthesia from the retro-orbital sinus to assess white blood cell number, platelet number, and hemoglobin levels.
The mice were bled from the retro-orbital sinus at days 7, 10, 14 and 21. The mice were anesthetized with Metofane (an inhaled anesthesia). Approximately 150-200 μl of blood were obtained from the retro-orbital sinus with a heparinzed capillary tube. The blood was then placed in a 1.7 ml microfuge tube containing 10 mM EDTA and held on ice until further processing.
One hundred μl of blood was pipetted into a centrifuge tube, to which 900 μl of distilled water was added. The blood and water were mixed by inversion and allowed incubate at 4° C. for 20 minutes. The tube was then centrifuged at 12000 rpm to precipitate the cellular debri for 20 to 30 minutes at room temperature. Twenty μl of the supernatant from this centrifugation was then added into triplicate wells of a 96 well plate containing 180 μl of distilled water. The optical density, was then read using a microplate reader at […].
Twenty μl of blood was mixed with 200 μl of red blood cell (RBC) lysing solution (0.83% NH4Cl, 10 mM EDTA, 0.5% NaHCO3). The mixture was then incubated for 10 minutes at 4° C. After this incubation, the supernatant was removed and the pellet was resuspended in 100 μl of PBS. To this, 100 μl of 0.04% trypan blue was added. This mixture was vortexed and the number of WBC (baseline was approximately 10^7 cells/ml) was evaluated by hematocytometer under light microscopy and the number: of platelets (baseline was approximately 2.5×10^8 platelets/ml) was evaluated by hematocytometer under phase contrast microscopy.
The blood was harvested by cardiac puncture on day 10 to assess mobilization of myeloid progenitors into the peripheral blood. The femurs and tibia were also collected and the bone marrow was harvested by flushing with PBS containing 2% fetal calf serum. After collection of the blood and bone marrow, the red blood cells were lysed with a hypotonic solution (described above), mixed with 0.04% trypan blue, and the number of nucleated cells assessed by hematocytometer under light microscopy. Aliquots of cells were then resuspended at 1×10^5 cells/ml (bone marrow) or 1×10^6 cells/ml Flood). […]

[2] = animal daily doses 10 to 1,000 μg/kg for 30 days; human 2.5 to 100 μg/kg/day
Protocol: Based upon safety evaluation studies in animals (where the daily doses tested ranged from 10 to 1,000 μg/kg for 30 days) and the pharmacology profile of, AII(1-7), the dose range used in humans ranged from 2.5 to 100 μg/kg/day over at least 10 days.

[3] = system: female C57B1/6 mice treated with 200 mg/kg cytoxan
[4] = system: patients with newly diagnosed breast cancer receiving doxorubicin and cyclophosphamide
[5] = system: patients with newly diagnosed breast cancer receiving doxorubicin and cyclophosphamide; experiment: Phase I/II dose escalation study of AII(1-7) before and after chemotherapy (Example 5); details: in vivo

Asp-Arg-Val-Tyr-Ile-His-Pro [AII(1-7)]
platelets after administration [1]: increase in platelets
safety margin of human dose range over the animal exposures [2]: 9-10 fold
number of GM-CFU in the bone marrow ([3]; 100 μg/kg/day, started 2 days prior to cytoxan): slightly reduced
number of myeloid progenitor cells in the bone marrow ([3]; administration initiated 2 days after chemotherapy): increased the number of myeloid progenitor cells in the bone marrow
number of myeloid progenitors in the peripheral blood ([3]; administration initiated after cyclophosphamide treatment): increased the number of myeloid progenitors in the peripheral blood
recovery of WBC after intravenous cyclophosphamide ([3]; s.c. treatment initiated two days after the chemotherapeutic): accelerated the recovery of WBC
time after cyclophosphamide at which increase in WBC number was observed ([3]; treatment initiated two days after cyclophosphamide): ≤ 9 days
WBC number compared with control ([3]; treatment initiated two days prior to cyclophosphamide, starting on day 14): decrease in WBC number compared with control
change in platelet number ([4]; 50 μg/kg/day AII(1-7)): only day 12 showed any change in platelet number
dose-limiting toxicities ([4]; 2.5 to 100 μg/kg/d): No dose-limiting toxicities
Toxicity: ANC < 1000/μl (frequency) ([4]; AII(1-7) 2.5 μg/kg): 100%
Toxicity: Hgb < 10 gm/dl (frequency) ([4]; AII(1-7) 2.5 μg/kg): 66%
Toxicity: Lymph < 500/μl (frequency) ([4]; AII(1-7) 2.5 μg/kg): 66%
Toxicity: Platelet < 80 K/μl (frequency) ([4]; AII(1-7) 2.5 μg/kg): 0%
Toxicity: WBC < 2000/μl (frequency) ([4]; AII(1-7) 2.5 μg/kg): 66%
Toxicity: ANC < 1000/μl (frequency) ([4]; AII(1-7) 10 μg/kg): 100%
Toxicity: Hgb < 10 gm/dl (frequency) ([4]; AII(1-7) 10 μg/kg): 33%
Toxicity: Lymph < 500/μl (frequency) ([4]; AII(1-7) 10 μg/kg): 33%
Toxicity: Platelet < 80 K/μl (frequency) ([4]; AII(1-7) 10 μg/kg): 0%
Toxicity: WBC < 2000/μl (frequency) ([4]; AII(1-7) 10 μg/kg): 66%
Toxicity: ANC < 1000/μl (frequency) ([4]; AII(1-7) 50 μg/kg): 100%
Toxicity: Hgb < 10 gm/dl (frequency) ([4]; AII(1-7) 50 μg/kg): 0%
Toxicity: Lymph < 500/μl (frequency) ([4]; AII(1-7) 50 μg/kg): 33%
Toxicity: Platelet < 80 K/μl (frequency) ([4]; AII(1-7) 50 μg/kg): 0%
Toxicity: WBC < 2000/μl (frequency) ([4]; AII(1-7) 50 μg/kg): 66%
Toxicity: ANC < 1000/μl (frequency) ([4]; AII(1-7) 75 μg/kg): 100%
Toxicity: Hgb < 10 gm/dl (frequency) ([4]; AII(1-7) 75 μg/kg): 0%
Toxicity: Lymph < 500/μl (frequency) ([4]; AII(1-7) 75 μg/kg): 0%
Toxicity: Platelet < 80 K/μl (frequency) ([4]; AII(1-7) 75 μg/kg): 0%
Toxicity: WBC < 2000/μl (frequency) ([4]; AII(1-7) 75 μg/kg): 100%
Toxicity: ANC < 1000/μl (frequency) ([4]; AII(1-7) 100 μg/kg): 100%
Toxicity: Hgb < 10 gm/dl (frequency) ([4]; AII(1-7) 100 μg/kg): 0%
Toxicity: Lymph < 500/μl (frequency) ([4]; AII(1-7) 100 μg/kg): 0%
Toxicity: Platelet < 80 K/μl (frequency) ([4]; AII(1-7) 100 μg/kg): 0%
Toxicity: WBC < 2000/μl (frequency) ([4]; AII(1-7) 100 μg/kg): 33%
platelets ([4]; across doses): dose-dependent increase in platelets
restoration of hemoglobin prior to the next cycle ([4]; all doses): restoration of hemoglobin prior to the next cycle was observed
over-production of formed blood elements ([4]; before or after chemotherapy): No over-production of formed blood elements
Alopecia (frequency by treatment group) ([4]; chemotherapy patients): 46%
Anemia (frequency by treatment group) ([4]; chemotherapy patients): 7%
Fatigue (frequency by treatment group) ([4]; chemotherapy patients): 93%
Headache (frequency by treatment group) ([4]; chemotherapy patients): 26%
Myalgia/Muscle-skeletal pain (frequency by treatment group) ([4]; chemotherapy patients): 53%
Nausea (frequency by treatment group) ([4]; chemotherapy patients): 93%
Stomatitis (frequency by treatment group) ([4]; chemotherapy patients): 40%
Vomiting (frequency by treatment group) ([4]; chemotherapy patients): 80%
frequency of grade 2-4 anemia ([4]; compared to filgrastim): reduced the frequency
frequency of grade 2-4 thrombocytopenia ([4]; compared to filgrastim): reduced the frequency
frequency of grade 3-4 lymphopenia ([4]; compared to filgrastim): reduced the frequency
late neutrophil recovery ([4]; compared to filgrastim): enhanced compared to filgrastim
synergy between filgrastim and AII(1-7) ([4]; following 10-12 days of AII(1-7), as little as 1 dose of filgrastim normalizes the neutrophil count): possible synergy
ability to maintain on cycle, full intensity chemotherapy ([4]; in vivo): permitted the patients to maintain full intensity chemotherapy on cycle
cycle delays due to neutropenia ([4]; in vivo): No cycle delays due to neutropenia
dose at which anemia correction with each cycle was observed ([4]; in vivo): ≥ 2.5 µg/kg
dose intensity of chemotherapy received by all study patients ([4]; in vivo): 100%
doses that appear to be active ([4]; in vivo): greater than 10 μg/kg/day
hematopoietic lineages ([4]; in vivo): increase in multiple hematopoietic lineages
level of nadir in number of white blood cells and absolute neutrophil count and time to these nadirs ([4]; in vivo): dose dependent increase
mobilization of hematopoietic progenitors into the peripheral blood ([4]; in vivo): mobilization of hematopoietic progenitors into the peripheral blood
neutrophil nadirs ([4]; in vivo): not affected
optimal dosage range ([4]; in vivo): 50 to 75 µg/kg/day
recovery towards baseline in formed blood elements ([4]; in vivo): improves the recovery towards baseline in all formed blood elements
day of nadir in platelet number ([4]; lowest dose of AII(1-7)): 12 days
hemoglobin after chemotherapy ([4]; lowest dose of AII(1-7)): reduction in hemoglobin was observed
hemoglobin level by the next cycle ([4]; lowest dose of AII(1-7)): returned to baseline levels by the next cycle
change in platelet number ([4]; next higher dose than 50 μg/kg/day): no decrease in platelet number occurred
reduction of the frequency of stomatitis ([4]; of that observed with filgrastim treatment): 30%
doses of filgrastim needed at day 15 to treat grade 4 neutropenia ([4]; patients treated at 2.5 and 10 μg/kg AII(1-7)): 1-2 doses
acute effect on blood pressure following administration ([4]; patients with or without a history of hypertension): No acute affect on blood pressure
frequency of headache, muscle pain and alopecia ([4]; relative to historical numbers and filgrastim controls): decreasing the frequency
anemia ([4]; subsequent dose increases of AII(1-7)): slight to no anemia
drug related serious adverse events [5]: No drug related serious adverse events
safety (summary) [5]: safe without observed dose limiting toxicities
